Series [1] relates to zebrafish larvae (bone formation). The series is described as follows: Anabolic bone screen in zebrafish larvae. It is filed as in vivo. The following applies: for anabolic effects (promoting bone), dose/response: 3 d.p.f. to 8 d.p.f., range of concentrations. As for the experimental part:
A 1 mg/ml stock of parathyroid hormone (PTH) (Sigma) was made in 20 mM NaH2PO4 and 2.13g/L mannitol. A […] stock of cholecalciferol (Vitamin D)(Sigma) was made in dH2O. […]
(§1) Embryos and larvae were fixed in 4% paraformaldehyde (PFA), then labelled with alizarin red as described herein. In vivo labelling was achieved by rearing fish in 0.05% alizarin red in embryo medium.
(§2) Stained larvae were mounted on depression slides and visualised by fluorescence microscopy on a BX51 microscope (Olympus) and images were captured using a ColorView camera and AnalySis software (Olympus). The intensity of and area of alizarin red fluorescence was quantified for each treatment group, with a minimum of 5 samples per group, using colour threshold and area measurements in AnalySis (Olympus). Mean values and standard deviations were calculated using Excel software (Microsoft Office).
In addition to screening for the rescue of osteoporosis, we observed that anabolic bone effects could also be detected.

Series [2] deals with zebrafish. The experiment in a line: DMSO tolerance of zebrafish. The following applies: added to the fish water. Format: in vivo. From the text:
Moreover, the inventors have discovered that zebrafish are also DMSO (dimethyl sulphoxide) tolerant. This is important as DMSO is used as a solvent to dissolve many drugs. The inventors have established that zebrafish can tolerate 1% DMSO. Thus, a candidate drug or other test substance may be dissolved in DMSO and administered to zebrafish by adding to the fish water to give a final concentration of DMSO of at least up to 1%. This is employed in various preferred aspects and embodiments of the present invention.

The subject of series [3] is zebrafish larvae with prednisolone-induced osteoporosis. The series is described as follows: Rescue of prednisolone-induced osteoporosis with etidronate in zebrafish larvae. It is filed as in vivo. As for the experimental part: 1) Osteoporosis was induced with prednisolone as described above.
2) Etidronic acid (Sigma H6773) was made up as […] stock in embryo medium.
3) Osteoporosis was rescued by co-administration of etidronic acid and prednisolone from 3 d.p.f. to 10 d.p.f.
A 10 mg/ml stock solution of etidronate (Sigma) in embryo medium was used in all prednisolone rescue experiments. The pH of the solution was adjusted to pH 7.5 using NaOH. The stock was stored at 4° C. for a maximum of 2 months. […]. OP was induced by exposure of larvae to 10 ug/ml prednisolone from 3 d.p.f. to 6 d.p.f. At 6 d.p.f., medium containing 10 ug/ml prednisolone was removed and replaced with 10 ug/ml prednisolone in combination with etidronate.
as §1, §2
A dose/response study was performed using larvae exposed to varying doses of etidronate in the presence of prednisolone (at 10 ug/ml) from 3 d.p.f. to 9 d.p.f. Samples were stained with alizarin red and the area of stained tissue was quantified using AnalySis software. The average stained area was calculated from five samples at each concentration and plotted as a mineralization index.

For series [4], the system named is zebrafish larvae. The experiment in a line: Toxicity / viability of zebrafish larvae in embryo medium containing compound.
Procedure: For compound screening, a dose of 10 ug/ml prednisolone may be used, although other doses and durations of exposure may also be used.

Entries after “also recorded” stand apart in the source; their conditions may differ.

For the molecule `C=C1CC[C@H](O)C/C1=C/C=C1\CCC[C@]2(C)[C@@H]([C@H](C)CCCC(C)C)CC[C@@H]12` [Cholecalciferol, cholecalciferol, reference compound], the “anabolic effects (promoting bone), dose/response” value in series [1] was “clear dose/response in relation to promoting bone”.

With `C[S+](C)[O-]` [DMSO, dimethyl sulphoxide], the “DMSO concentration tolerated by zebrafish” value in series [2] was 1%.

In the case of `CC(O)(P(=O)(O)O)P(=O)(O)O` [etidronate, Etidronic acid], the “rescue of OP phenotype in wholemount skeletal preparations (amount of staining)” value in series [3] (etidronate 10 ug/ml with prednisolone 10 ug/ml) is reported as “rescue is readily observed; also recorded: clear increase in the amount of staining”. The “dose/response, fluorescence intensity in stained bones in vivo” value in series [3] (increasing doses of etidronate in the presence of prednisolone) is recorded as “correlated with recovery from OP”. Besides, the “dose/response, area of stained tissue (mineralization index)” value in series [3] (varying doses of etidronate with prednisolone 10 ug/ml, 3 d.p.f. to 9 d.p.f.) was “clear correlation between increasing doses of etidronate and rescue of the OP phenotype”. Further, the viability of larvae result in series [4] (5 ug/mi etidronic acid co-administered with 10 ug/ml prednisolone) and in series [4] (10 ug/ml etidronate co-administered with 10 ug/ml prednisolone) was “viable beyond 10 d.p.f” throughout.

B1: parathyroid hormone (peptide, UniProt P01270 32-115, looked up)
Parathyroid hormone: SVSEIQLMHNLGKHLNSMERVEWLRKKLQDVHNFVALGAPLAPRDAGSQRPRKKEDNVLVESHEKSLGEADKADVNVLTKAKSQ
modifications: Parathyroid hormone
notes: parathyroid hormone (PTH) (Sigma)
In the case of B1, the Summary of effects result was “Anabolic effect” in series [1] (40 ng/ml, Continuous, 3 d.p.f. to 8 d.p.f); “Mild catabolic” in series [1] (100 ng/ml, Continuous, 3 d.p.f. to 8 d.p.f); “Strong anabolic” in series [1] (200 ng/ml, Brief, 6 hours on 5 d.p.f, effects noted on 8 d.p.f.); “Strong catabolic” in series [1] (200 ng/ml, Continuous, 3 d.p.f. to 8 d.p.f). The effect on bone result is on record as “anabolic effect” in series [1] (200 ng/ml, administered for 6-8 hours and then removed from the medium); “catabolic effect” in series [1] (206 ng/ml, administered continuously from 3 d.p.f to 9 d.p.f.); “anabolic effect” in series [1] (doses up to 100 ng/ml, administered continuously from 3 d.p.f to 9 d.p.f.). Also, the “anabolic effects (promoting bone), dose/response” value in series [1] is “clear dose/response in relation to promoting bone”.

Values taken from patent US20060150259A1, “Model of bone disease amenable to high-throughput screening” (priority 2003, published 2006).
